According to article PMC8865458:

Tested on: T1, His-NrtR (Pseudomonas aeruginosa PAK), ORF:d24b93ef
T1 sequence: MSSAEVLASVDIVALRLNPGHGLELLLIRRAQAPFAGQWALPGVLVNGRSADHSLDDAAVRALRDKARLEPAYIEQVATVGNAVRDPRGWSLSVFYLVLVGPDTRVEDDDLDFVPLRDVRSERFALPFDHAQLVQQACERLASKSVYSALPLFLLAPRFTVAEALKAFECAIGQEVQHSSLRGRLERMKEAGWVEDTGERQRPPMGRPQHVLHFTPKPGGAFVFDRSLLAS
Test: EMSA
Settings: 10 mM Tris, 1 mM DTT, pH 7.5, […]

## CAGGAGTGATATTAGCGATTCCCAGTGCTCCCGCAACCTGCCAGAAAACCCAGCGAAGCTTCTTCGGCAGCCATTTTAGAAAAATATATTCCTTTAATTTCAATAAGTTACTTAAATTCACCGAGCGTTTTTGGCAAACCTCCCGGGCATTTATCTACTTAGGCTCACACGCCGTGTAAGTTAATGCTTACAAGAGCAGACACAAAAAACCCGGCGAACGCCGGGTCTTCAGTGGGTCTAAGGTTTTCCG (double strand) [rsmZ promoter fragment]
  binding: binds

## GCTGGGAAGGCTCGCGATGATGAGGGGACTGGCCACTGTAGCGGGCCCGGCGCAGATCATCTTGACGCACGGCAAGCTCCCGGCGGCTGGGTGTTGCCGTCGGTCCGGCGAGCGGAACTATTACAGCGTGTAAGCCAAGGCTTACAAACGGCGGTGGTTTTGGCTGCTTTCTCCCCCTCGCGGAGATGCGTAATCTTCAAACCGTCAGGACATTGCGCAGGAAGCGCCAAAGACAATACGG (double strand) [rsmY promoter fragment]
  binding: binds

## CCGCGTTGCCGACCGTGGCCACCTGCTCGATGTAGGCCGGCTCCAGCCGCGCCTTGTCGCGCAGGGCGCGCACCGCCGCGTCGTCGAGGCTGTGGTCGGCGCTGCGGCCGTTGACCAGCACGCCGGGCAAGGCCCACTGGCCGGCGAAAGGCGCCTGGGCGCGGCGGATCAGCAACA (double strand) [nrtR coding fragment]
  binding: no binding

## AGAAAATACCTTCCACTGCGAAATTTTGTAGTACAAGTGCTTGACGACTTATTTCACGTGATGAATTATGTACCCACATTCAGCCCCAACCCGTCAAGCGGAGGCTTCC (double strand) [nadD2 promoter fragment]
  binding: binds
